In assay [1] the target is human BCMA (huBCMA) on cells (human) (UniProt Q02223). Kind of assay: FACS, hu BCMA.
Assay [2] has as its target TACI on transiently transfected cells (human) (UniProt O14836). Kind of assay: FACS, hu TACI.
Assay [3] addresses human BCMA (huBCMA) on cells (human) (UniProt Q02223). Kind of assay: APRIL blocking.
For assay [4], the target named is cynomolgus (Macaca fascicularis) BCMA on cells (cynomolgus (Macaca fascicularis)). Kind of assay: FACS, Cyno BCMA.
Assay [5] has the same target. Kind of assay: CynoBCMA O/N FACS.
In assay [6] the target is recombinant soluble human BCMA (rhu BCMA), analyte of the Example 2 Biacore assay (human) (UniProt Q02223). Kind of assay: SPR (BIAcore 3000), steady state fit, antibody captured, rhu BCMA as analyte.
Sequence of recombinant soluble human BCMA (rhu BCMA), analyte of the Example 2 Biacore assay (human) (Q02223 1-54 limits assumed): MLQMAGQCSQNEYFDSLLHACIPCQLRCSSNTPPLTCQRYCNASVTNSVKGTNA

Sequence of human BCMA (huBCMA) on cells (human) (Q02223 whole entry N81S): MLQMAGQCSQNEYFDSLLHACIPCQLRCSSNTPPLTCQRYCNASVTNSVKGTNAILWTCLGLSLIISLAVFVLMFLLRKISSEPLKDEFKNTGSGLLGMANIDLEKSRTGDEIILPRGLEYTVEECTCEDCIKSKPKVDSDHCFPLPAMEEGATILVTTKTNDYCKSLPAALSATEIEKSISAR
Sequence of cynomolgus (Macaca fascicularis) BCMA on cells (cynomolgus (Macaca fascicularis)) (Q02223 other isoform, or with tags, fused parts or gaps): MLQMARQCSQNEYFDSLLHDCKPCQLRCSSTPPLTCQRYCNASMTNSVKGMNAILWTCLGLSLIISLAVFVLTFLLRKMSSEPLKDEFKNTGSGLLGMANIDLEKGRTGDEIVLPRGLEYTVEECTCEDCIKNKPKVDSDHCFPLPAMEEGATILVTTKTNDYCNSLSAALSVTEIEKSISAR
Sequence of TACI on transiently transfected cells (human) (O14836 whole entry): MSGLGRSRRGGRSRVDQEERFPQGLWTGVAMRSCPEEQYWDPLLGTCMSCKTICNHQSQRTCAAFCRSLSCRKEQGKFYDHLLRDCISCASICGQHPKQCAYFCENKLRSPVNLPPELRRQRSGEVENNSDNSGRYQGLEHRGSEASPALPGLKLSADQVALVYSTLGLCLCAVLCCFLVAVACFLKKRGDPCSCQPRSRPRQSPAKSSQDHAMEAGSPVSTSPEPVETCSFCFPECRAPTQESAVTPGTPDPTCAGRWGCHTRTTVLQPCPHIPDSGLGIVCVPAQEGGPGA

B1: 33C7 (antibody, from a related filing, V domains shown)
VH: EVQLLESGGALVQPGGSLRLSCAASGFTFSSYAMNWVRQAPGKGLEWVSAISVGGDTYYADSVKGRFTISRDNSKNTLYLHVNSLSAEDSAVYYCAKDQVTLVRGVWYYYGLDVWGQGTTVTVSS
VL: VIVLIQSPLSLPVTPGEPASISCRSSQSLLHSNGNNYLDWYLQKPGQSPHLLISLGSNRTSGVPDRFSGSGSGTDFTLKISRVEAEDVGFYYCMQALQPPRRFGQGTKLEIKR
On to B1, for which the MFI in assay [1] was found to be 132000 MFI; in assay [2] it was 1890 MFI; in assay [4] it was 238000 MFI; in assay [5], 109 MFI. Besides, the % Inhibition n=1 in assay [3] stood at 68%. The % Inhibition n=2 in assay [3] came out at 88%. This molecule came in with an Avg. % Inhibition in assay [3] of 78%.

B2: 11F12 (antibody, from a related filing, IgG1, V domains shown)
VH: QVQLVESGGGVVQPGRSLRLSCAASGFTFSSYGLHWVRQAPGKGLEWVALISYDGSNKYYADSVKGRFTISRDNSKNTLYLQMNSLRAEDTAVYYCWYSSSWTPLDYWGQGTLVTVSS
VL: DIQMTQSPSSLSASVGDRVTITCRASQGIRNDLGWYQQKPGKAPKRLIYAASSLQSGVPSRFSGSGSGTEFTLTISSLQPEDFATYYCLQYYSYPLTFGGGTKVEIKR
Consider B2, for which the Kd in assay [6] stood at 36.1 nM.

(Values after patent publication US20150344583A1.)
